Measured values reported in US20120135923A1 (IPSEN PHARMA S A S, published 2012).
Bridge positions count the residues as written; N and C are the ends. Square brackets hold non-standard residues; d marks the D form. Ends that are not written are not given here. 1Nal = N[C@@H](Cc1cccc2ccccc12)C(=O)O; d2Nal = N[C@H](Cc1ccc2ccccc2c1)C(=O)O; Bta = N[C@@H](Cc1csc2ccccc12)C(=O)O; Aic = NC1(C(=O)O)Cc2ccccc2C1; Ac6c = NC1(C(=O)O)CCCCC1; Nle = CCCC[C@H](N)C(=O)O; Ac3c = NC1(C(=O)O)CC1; Aib = CC(C)(N)C(=O)O; GABA = NCCCC(=O)O; βAla = NCCC(=O)O

B1: Ac-Nle-c(Cys-D-Ala-His-D-Phe-Arg-Trp-Cys)-(Doc)2-Tyr-Gly-Arg-Lys-Lys-Arg-Arg-Gln-Arg-Arg-Arg-NH2 (peptide)
peptide: XCAHFRWCXXYGRKKRRQRRR
modifications: N-terminal Ac; Nle at 1; D-Ala at 3; D-Phe at 5; Doc at 9 and 10; disulfide Cys2-Cys8; C-terminal NH2
B2: Ac-Nle-c(Cys-His-D-Phe-Arg-D-Trp-β-Ala-Cys)-NH2 (peptide)
peptide: Ac-[Nle]CH[dF]R[dW][βAla]C-NH2
modifications: disulfide 2-8
SMILES: CCCC[C@H](NC(C)=O)C(=O)N[C@H]1CSSC[C@@H](C(N)=O)NC(=O)CCNC(=O)[C@@H](Cc2c[nH]c3ccccc23)NC(=O)[C@H](CCCNC(=N)N)NC(=O)[C@@H](Cc2ccccc2)NC(=O)[C@H](Cc2c[nH]cn2)NC1=O
B3: c[Hydantoin(C(O)-(Asp-Aic))-D-2-Nal-Arg-Trp-Lys]-NH2 (peptide)
peptide: D[Aic][d2Nal]RWK-NH2
modifications: lactam 1-6; also: hydantoin ring: N-terminal N of Asp1 and backbone N of residue 2 bridged by one C(O), bridge at N via C(O), other end not in the chain
B4: c[Hydantoin(C(O)-(Asp-A6c))-D-2-Nal-Arg-Trp-Lys]-NH2 (peptide)
peptide: D[Ac6c][d2Nal]RWK-NH2
modifications: lactam 1-6; also: hydantoin ring: N-terminal N of Asp1 and backbone N of residue 2 bridged by one C(O), bridge at N via C(O), other end not in the chain
B5: Phe-c(Cys-His-D-Phe-Arg-Trp-Gaba-Cys)-NH2 (peptide)
peptide: FCH[dF]RW[GABA]C-NH2
modifications: disulfide 2-8; N-terminus assumed
SMILES: N=C(N)NCCC[C@@H]1NC(=O)[C@@H](Cc2ccccc2)NC(=O)[C@H](Cc2c[nH]cn2)NC(=O)[C@@H](NC(=O)[C@@H](N)Cc2ccccc2)CSSC[C@@H](C(N)=O)NC(=O)CCCNC(=O)[C@H](Cc2c[nH]c3ccccc23)NC1=O
B6: Ac-c(Cys-Glu-His-D-2-Nal-Arg-Bal-Ala-Cys)-Pro-Pro-Lys-Asp-β-Ala-Tyr-Aib-Arg-Lys-Lys-Arg-Arg-Gln-Arg-Arg-Arg-NH2 (peptide)
peptide: Ac-CEH[d2Nal]R[Bta]ACPPKD[βAla]Y[Aib]RKKRRQRRR-NH2
modifications: disulfide 1-8
SMILES: CC(=O)N[C@H]1CSSC[C@@H](C(=O)N2CCC[C@H]2C(=O)N2CCC[C@H]2C(=O)N[C@@H](CCCCN)C(=O)N[C@@H](CC(=O)O)C(=O)NCCC(=O)N[C@@H](Cc2ccc(O)cc2)C(=O)NC(C)(C)C(=O)N[C@@H](CCCNC(=N)N)C(=O)N[C@@H](CCCCN)C(=O)N[C@@H](CCCCN)C(=O)N[C@@H](CCCNC(=N)N)C(=O)N[C@@H](CCCNC(=N)N)C(=O)N[C@@H](CCC(N)=O)C(=O)N[C@@H](CCCNC(=N)N)C(=O)N[C@@H](CCCNC(=N)N)C(=O)N[C@@H](CCCNC(=N)N)C(N)=O)NC(=O)[C@H](C)NC(=O)[C@H](Cc2csc3ccccc23)NC(=O)[C@H](CCCNC(=N)N)NC(=O)[C@@H](Cc2ccc3ccccc3c2)NC(=O)[C@H](Cc2c[nH]cn2)NC(=O)[C@H](CCC(=O)O)NC1=O
B7: c[Hydantoin(C(O)-(Asp-A3c))-D-2-Nal-Arg-Trp-Lys]-NH2 (peptide)
peptide: D[Ac3c][d2Nal]RWK-NH2
modifications: lactam 1-6; also: hydantoin ring: N-terminal N of Asp1 and backbone N of residue 2 bridged by one C(O), bridge at N via C(O), other end not in the chain
B8: Ac-c(Cys-Glu-His-D-2-Nal-Arg-1-Nal-Ala-Cys)-Pro-Pro-Lys-Asp-β-Ala-Tyr-Gly-Arg-Lys-Lys-Arg-Arg-Gln-Arg-Arg-Arg-NH2 (peptide)
peptide: CEHXRXACPPKDXYGRKKRRQRRR
modifications: N-terminal Ac; D-2-Nal at 4; 1-Nal at 6; β-Ala at 13; disulfide Cys1-Cys8; C-terminal NH2
B9: Ac-c(Cys-Glu-His-D-2-Nal-Arg-Bal-Ala-Cys)-Pro-Pro-Lys-Asp-β-[…]NH2 (peptide)
peptide: Ac-CEH[d2Nal]R[Bta]ACPPKD[βAla]GRRKRRQRRR-NH2
modifications: disulfide 1-8
SMILES: CC(=O)N[C@H]1CSSC[C@@H](C(=O)N2CCC[C@H]2C(=O)N2CCC[C@H]2C(=O)N[C@@H](CCCCN)C(=O)N[C@@H](CC(=O)O)C(=O)NCCC(=O)NCC(=O)N[C@@H](CCCNC(=N)N)C(=O)N[C@@H](CCCNC(=N)N)C(=O)N[C@@H](CCCCN)C(=O)N[C@@H](CCCNC(=N)N)C(=O)N[C@@H](CCCNC(=N)N)C(=O)N[C@@H](CCC(N)=O)C(=O)N[C@@H](CCCNC(=N)N)C(=O)N[C@@H](CCCNC(=N)N)C(=O)N[C@@H](CCCNC(=N)N)C(N)=O)NC(=O)[C@H](C)NC(=O)[C@H](Cc2csc3ccccc23)NC(=O)[C@H](CCCNC(=N)N)NC(=O)[C@@H](Cc2ccc3ccccc3c2)NC(=O)[C@H](Cc2c[nH]cn2)NC(=O)[C@H](CCC(=O)O)NC1=O
B10: Ac-c(Cys-Glu-His-D-2-Nal-Arg-Bal-Ala-Cys)-Pro-Pro-Lys-Asp-β-[…]NH2 (peptide)
peptide: Ac-CEH[d2Nal]R[Bta]ACPPKD[βAla]GRKRRRQRRR-NH2
modifications: disulfide 1-8
SMILES: CC(=O)N[C@H]1CSSC[C@@H](C(=O)N2CCC[C@H]2C(=O)N2CCC[C@H]2C(=O)N[C@@H](CCCCN)C(=O)N[C@@H](CC(=O)O)C(=O)NCCC(=O)NCC(=O)N[C@@H](CCCNC(=N)N)C(=O)N[C@@H](CCCCN)C(=O)N[C@@H](CCCNC(=N)N)C(=O)N[C@@H](CCCNC(=N)N)C(=O)N[C@@H](CCCNC(=N)N)C(=O)N[C@@H](CCC(N)=O)C(=O)N[C@@H](CCCNC(=N)N)C(=O)N[C@@H](CCCNC(=N)N)C(=O)N[C@@H](CCCNC(=N)N)C(N)=O)NC(=O)[C@H](C)NC(=O)[C@H](Cc2csc3ccccc23)NC(=O)[C@H](CCCNC(=N)N)NC(=O)[C@@H](Cc2ccc3ccccc3c2)NC(=O)[C@H](Cc2c[nH]cn2)NC(=O)[C@H](CCC(=O)O)NC1=O
B11: Ac-c(Cys-Glu-His-D-2-Nal-Arg-Bal-Ala-Cys)-Pro-Pro-Lys-Asp-β-Ala-Tyr-Gly-Arg-Lys-Lys-Arg-Arg-Gln-Arg-Arg-Arg-NH2 (peptide)
peptide: CEHXRXACPPKDXYGRKKRRQRRR
modifications: N-terminal Ac; D-2-Nal at 4; Bal at 6; β-Ala at 13; disulfide Cys1-Cys8; C-terminal NH2

Assays:
hMC1-R [1] = target: T1, hMC1-R (human, UniProt Q01726 1-317); assay: ratio Ki hMC1-R / Ki hMC4-R, same assay
T1 construct: whole, on cells; Assayed as membranes of CHO-K1 cells expressing the receptor; also called hMC-R receptor subtype 1; melanocyte-specific receptor (MC1-R)
Method: (§1) Cellular membranes used for the in vitro receptor binding assays were obtained from transgenic CHO-K1 cells stably expressing hMC-R receptor subtypes 1, 3, 4 or 5. […] The pellets were resuspended in the same buffer and centrifuged at 50,000 g for 10 minutes at approximately 4° C. The washed pellets containing the cellular membranes were stored at approximately −80° C.
(§2) Competitive inhibition of [¹²⁵I](Tyr²)-(Nle⁴-D-Phe⁷)α-MSH ([¹²⁵I]-NDP-α-MSH, Amersham Biosciences®) binding was carried out in polypropylene 96 well plates. Cell membranes (1-10 μg protein/well) prepared as described above were incubated in 50 mM Tris-HCl at pH 7.4 containing 0.2% bovine serum albumin (BSA), 5 mM MgCl₂, 1 mM CaCl₂ and 0.1 mg/mL bacitracin, with increasing concentrations of the test compound and 0.1-0.3 nM […] for approximately 90-120 minutes at approximately 37° C. Bound [¹²⁵I]-NDP-α-MSH ligand was separated from free [¹²⁵I]-NDP-α-MSH by filtration through GF/C glass fiber filter plates (Unifilter®; Packard) presoaked with 0.1% (w/v) polyethylenimine (PEI), using a Packard Filtermate® harvester. Filters were washed three times with 50 mM Tris-HCl at pH 7.4 at a temperature of approximately 0-4° C. and then assayed for radioactivity using a Packard Topcount® scintillation counter. Binding data were analyzed by computer-assisted non-linear regression analysis (XL fit; IDBS).

[2] = target: T2, human melanocortin receptor subtype 1 (hMC1-R) (human, UniProt Q01726 1-317); assay: [125I]-NDP-α-MSH competition, membranes
T2 construct: whole, on cells; membranes of CHO-K1 cells

[3] = target: T3, human melanocortin receptor subtype 3 (hMC3-R) (human, UniProt P41968 1-323); assay: [125I]-NDP-α-MSH competition, membranes
T3 construct: whole, on cells; membranes of CHO-K1 cells

[4] = target: T4, human melanocortin receptor subtype 4 (hMC4-R) (human, UniProt P32245 1-332); assay: [125I]-NDP-α-MSH competition, membranes
T4 construct: whole, on cells; membranes of CHO-K1 cells

[5] = target: T5, human melanocortin receptor subtype 5 (hMC5-R) (human, UniProt P33032 1-325); assay: [125I]-NDP-α-MSH competition, membranes
T5 construct: whole, on cells; membranes of CHO-K1 cells

hMC1-R [6] = target: T1, hMC1-R; assay: competition with [125I]-NDP-α-MSH, CHO-K1 membranes
Method: as §1, §2

hMC3-R = target: T6, hMC3-R (human, UniProt P41968 1-323); assay: as above
T6 construct: whole, on cells; Assayed as membranes of CHO-K1 cells expressing the receptor; also called hMC-R receptor subtype 3; melacortin-3 (MC3-R)
Method: as §1, §2

hMC4-R = target: T7, hMC4-R (human, UniProt P32245 1-332); assay: as above
T7 construct: whole, on cells; Assayed as membranes of CHO-K1 cells expressing the receptor; also called hMC-R receptor subtype 4; melanocortin-4 (MC4-R)
Method: as §1, §2

hMC5-R = target: T8, hMC5-R (human, UniProt P33032 1-325); assay: as above
T8 construct: whole, on cells; Assayed as membranes of CHO-K1 cells expressing the receptor; also called hMC-R receptor subtype 5; melanocortin-5 receptor (MC5-R)
Method: as §1, §2

T5 sequence (P33032 whole entry): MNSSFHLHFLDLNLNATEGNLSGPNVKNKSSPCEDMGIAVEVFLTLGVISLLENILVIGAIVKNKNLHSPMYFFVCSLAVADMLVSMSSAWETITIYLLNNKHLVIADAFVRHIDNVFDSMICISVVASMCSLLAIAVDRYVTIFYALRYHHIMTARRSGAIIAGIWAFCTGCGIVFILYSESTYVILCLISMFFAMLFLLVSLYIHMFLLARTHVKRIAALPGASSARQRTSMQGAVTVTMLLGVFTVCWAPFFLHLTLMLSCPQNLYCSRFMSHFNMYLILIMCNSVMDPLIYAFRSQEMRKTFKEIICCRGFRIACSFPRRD
T8 sequence (P33032 whole entry): as above
T6 sequence (P41968 whole entry): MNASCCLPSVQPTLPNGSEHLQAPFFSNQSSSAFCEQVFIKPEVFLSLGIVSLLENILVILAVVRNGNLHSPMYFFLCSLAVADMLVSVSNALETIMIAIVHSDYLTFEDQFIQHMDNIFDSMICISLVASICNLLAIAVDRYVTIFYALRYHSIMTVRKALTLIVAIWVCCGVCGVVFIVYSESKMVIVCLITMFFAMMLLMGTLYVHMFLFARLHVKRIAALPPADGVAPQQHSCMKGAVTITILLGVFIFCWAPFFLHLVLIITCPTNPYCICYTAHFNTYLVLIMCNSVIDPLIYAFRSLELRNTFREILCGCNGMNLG
T3 sequence (P41968 whole entry): as above
T1 sequence (Q01726 whole entry): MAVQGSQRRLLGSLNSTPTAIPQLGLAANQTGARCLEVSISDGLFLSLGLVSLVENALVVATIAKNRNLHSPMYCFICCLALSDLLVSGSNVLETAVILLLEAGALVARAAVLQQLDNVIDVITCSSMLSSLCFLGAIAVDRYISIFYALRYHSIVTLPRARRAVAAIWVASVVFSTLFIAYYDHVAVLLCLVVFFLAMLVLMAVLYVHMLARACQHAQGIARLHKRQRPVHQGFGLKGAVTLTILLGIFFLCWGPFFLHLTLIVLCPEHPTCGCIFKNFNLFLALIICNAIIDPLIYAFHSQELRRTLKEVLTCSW
T2 sequence (Q01726 whole entry): as above
T7 sequence (P32245 whole entry): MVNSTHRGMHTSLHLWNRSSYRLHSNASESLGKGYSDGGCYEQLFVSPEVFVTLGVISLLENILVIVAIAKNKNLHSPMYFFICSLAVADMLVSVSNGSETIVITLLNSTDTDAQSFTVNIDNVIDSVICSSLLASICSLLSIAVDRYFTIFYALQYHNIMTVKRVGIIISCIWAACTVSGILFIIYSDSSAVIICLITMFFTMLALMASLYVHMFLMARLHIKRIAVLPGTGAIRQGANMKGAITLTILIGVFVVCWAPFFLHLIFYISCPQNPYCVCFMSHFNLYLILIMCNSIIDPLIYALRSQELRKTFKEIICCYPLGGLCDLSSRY
T4 sequence (P32245 whole entry): as above

Binder	Ki hMC1-R/MC4-R (hMC1-R [1])	Ki [2] [nM]	Ki [3] [nM]	Ki [4] [nM]	Ki [5] [nM]	Ki (hMC1-R [6]) [nM]	Ki (hMC3-R) [nM]	Ki (hMC4-R) [nM]	Ki (hMC5-R) [nM]
Ac-FCH[dF]RW[GABA]C-NH2 (disulfide 2-8) [Ac-Phe-c(Cys-His-D-Phe-Arg-Trp-Gaba-Cys)-NH2]	0.12	–	–	–	–	–	–	–	–
B1	–	0.211	0.665	0.635	118	–	–	–	–
B2	0.16	–	–	–	–	0.323	14.1	1.96	24
Ac-[Nle]C[dA]H[dF]RWAC-NH2 (disulfide 2-9) [Ac-Nle-c(Cys-D-Ala-His-D-Phe-Arg-Trp-Ala-Cys)-NH2]	0.41	–	–	–	–	9.12	1130	22.1	2860
B3	–	9030	2630	35.8	1160	–	–	–	–
Ac-CEH[d2Nal]R[1Nal]ACPPKD[βAla]RRRRRQRRR-NH2 (disulfide 1-8) [Ac-c(Cys-Glu-His-D-2-Nal-Arg-1-Nal-Ala-Cys)-Pro-Pro-Lys-Asp-β-[…]NH2]	–	2.42	6.56	0.238	41.7	–	–	–	–
B4	–	2170	1480	16.5	451	–	–	–	–
B5	0.04	–	–	–	–	0.186	–	4.93	0.537
B6	–	7.84	10.2	0.783	91.8	–	–	–	–
B7	–	7570	1920	420	2880	–	–	–	–
GCEH[dF]RWC-NH2 (disulfide 2-8; also: hydantoin ring from C(O) with Gly1-Cys2) [c[Hydantoin(C(O)-(Gly-Cys))-Glu-His-D-Phe-Arg-Trp-Cys]-NH2]	–	15.6	305	8.92	3070	–	–	–	–
B8	–	4.59	6.28	0.588	22.6	–	–	–	–
Ac-C[dA]H[dF]RWAC-NH2 (disulfide 1-8) [Ac-c(Cys-D-Ala-His-D-Phe-Arg-Trp-Ala-Cys)-NH2]	2.06	–	–	–	–	199	5990	96.7	–
B9	–	2.5	1.59	0.573	15.7	–	–	–	–
B10	–	4.29	2.15	0.425	15.5	–	–	–	–
B11	–	6.46	5.22	0.38	15.3	–	–	–	–
